Here are results for eleven molecules from patent US20200010546A1 (TRICAN BIOTECHNOLOGY, published 2020).

Substitutions are numbered along the chain they refer to.

Sequences and labels used below:
B1: CwP2F12 (IgG4-reformatted anti-CD47 antibody) (antibody, V domains shown)
VH: QVQLVQSGAEVKKPGASVRLSCKASGYTFSSYYMHWVRQAPGQGLVWMGTSIPTAASGSYAQKFQGRVTMTRDTSTTTVYMELSSLRSEDTAVYYCARGGRGGFDYWGQGTPVTVSS
VL: QPGLTQPPSVSKGLRRTATLTCTGNSNNVGNQGAVWLQQHQGHPPKLLSYRNNNRPSGISERFSASRSANTASLTITGLQPEDEADYYCSAWDSSLSGWVFGGGTKLTVLG
notes: Full-length human IgG4, expressed in HEK293 cells
B2: BrP1F3 (IgG4-reformatted anti-CD47 antibody) (antibody, V domains shown)
VH: QVQLVQSGAEVKKPGASVKVSCKASGYTFTSYYMHWVRQAPGQGLEWMGIINPSGGSTSYAQKFQGRVTMTRDTSTSTVYMELSSLRSEDTAVYYCARGGTLGMDVWGQGTTVTVSS
VL: SSELTQDPAVSVALGQTVRITCQGDSLRSYYASWYQQKPGQAPVLVIYGKNNRPSGIPDRFSGSSSGNTASLTITGAQAEDEADYYCNSRDSSGNHYVFGTGTKVTVLG
notes: as for B1
B3: BrP1F11 (IgG4-reformatted anti-CD47 antibody) (antibody, V domains shown)
VH: QVQLVQSGAEVKKPGASVKISCKASGYTFTTYHIHWVRQAPGQGLEWMGVINSNAGNTGYAQNFQDRVTMTRDTSTSTVYMELRSLKSDDTAVYYCAKDPGMGWYMHHWGQGTLVTVSS
VL: NFMLTQPQSVSGSPGETVTISCTGSGGPIASNYVQWYQQRPGSVPTTVIYEDTKRPSGVPDRFSGSIDSSSNSASLTISGLKTEDEADYYCQSYESRNYVFGTGTKVSVLS
notes: Full-length human IgG4, expressed in HEK293 cells; also called BrP1F11-G4
B4: CwP1C4 (IgG4-reformatted anti-CD47 antibody) (antibody, V domains shown)
VH: QVTLKESGPTLVKPTQTLTLTCTFSGLSLSTSGVGVGWIRQPPGKALEWLALIYWNDDKRYSPSLKSRLTVTKDTSKNQVVLTMTNMDPVDTATYYCAHLITFGGRRAFDIWGQGTMVTVSS
VL: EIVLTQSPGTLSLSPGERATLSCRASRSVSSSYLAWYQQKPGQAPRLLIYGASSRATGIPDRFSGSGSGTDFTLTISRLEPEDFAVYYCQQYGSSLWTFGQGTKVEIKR
notes: as for B1
B5: CwP2F8 (IgG4-reformatted anti-CD47 antibody) (antibody, V domains shown)
VH: QVQLVQSGAEVKKPGSSVKVSCKASGGTFSSYAISWVRQAPGQGLEWMGRIIPILGIANYAQKFQGRVTITADKSTSTAYMELSSLRSEDTAVYYCARSLRWLHRVFDYWGQGTTVTVSS
VL: QSVLTQPASVSGSPGQSITISCTGTSSDVGGYNYVSWYQQHPGKAPKLIIFDVINRPSGVSSRFSGSKSGTSATLVITGLQTGDEADYYCGTWDNSLRAYVFGSGTNVTALG
notes: as for B1
B6: CwP2F12 Fab (library clone) (Fab, V domains shown)
VH: B1 VH
VL: B1 VL
notes: Fab in bacterial supernatant
B7: BrP1F3 Fab (library clone) (Fab, V domains shown)
VH: B2 VH
VL: B2 VL
notes: Fab in bacterial supernatant
B8: BrP1F11 Fab (library clone) (Fab, V domains shown)
VH: B3 VH
VL: B3 VL
notes: Fab in bacterial supernatant
B9: CwP1A1 Fab (library clone) (Fab, V domains shown)
VH: B4 VH with V2I, L27F, S32R, V71I
VL: not shown
notes: Fab in bacterial supernatant
B10: CwP1C4 Fab (library clone) (Fab, V domains shown)
VH: B4 VH
VL: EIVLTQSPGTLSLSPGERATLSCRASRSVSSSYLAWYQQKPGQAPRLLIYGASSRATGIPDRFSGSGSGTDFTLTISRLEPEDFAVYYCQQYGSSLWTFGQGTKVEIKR
notes: Fab in bacterial supernatant
B11: CwP2F8 Fab (library clone) (Fab, V domains shown)
VH: B5 VH
VL: B5 VL
notes: Fab in bacterial supernatant

T1 sequence (P78324 31-370 limits assumed): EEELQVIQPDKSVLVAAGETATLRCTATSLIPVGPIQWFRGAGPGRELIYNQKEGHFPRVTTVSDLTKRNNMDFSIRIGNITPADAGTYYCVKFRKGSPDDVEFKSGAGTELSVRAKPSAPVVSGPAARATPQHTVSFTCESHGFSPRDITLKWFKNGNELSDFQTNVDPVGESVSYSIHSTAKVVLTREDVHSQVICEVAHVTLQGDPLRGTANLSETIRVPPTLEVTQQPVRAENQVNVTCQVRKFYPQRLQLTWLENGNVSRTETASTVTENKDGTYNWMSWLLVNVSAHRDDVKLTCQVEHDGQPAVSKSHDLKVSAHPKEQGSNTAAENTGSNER

The first test has as its target T1, recombinant human His-tagged SIRP-α protein (R&D Systems, USA) (human, UniProt P78324 31-370, limits assumed).
T1 construct: Bought from R&D Systems; also called signal-regulatory protein alpha; not shown: His tag
The experiment in a line: direct ELISA, SIRP-α coated at 1 µg/ml.
B1: the binding result was “no binding (tested: 0.5 µg/ml)”.

For the molecule B2, the binding result is “no binding (tested: 0.5 µg/ml)”.

As for B3, the binding result is reported as “no binding (tested: 0.5 µg/ml)”.

As to B4, the binding result is “no binding (tested: 0.5 µg/ml)”.

As for B5, the binding result is listed as “no binding (tested: 0.5 µg/ml)”.

In the next test the target is T2, recombinant human CD47-Fc protein (R&D Systems, USA) (human, UniProt Q08722 19-139).
T2 construct: Bought from R&D Systems; also called CD47-Fc fusion protein; recombinant CD47; not shown: Fc part of the bought fusion
T2 sequence (Q08722 19-139 limits assumed): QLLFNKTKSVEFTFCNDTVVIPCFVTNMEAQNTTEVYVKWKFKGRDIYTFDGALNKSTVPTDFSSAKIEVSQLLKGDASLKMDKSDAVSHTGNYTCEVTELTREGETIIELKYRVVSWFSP
The experiment in a line: titration ELISA on coated CD47-Fc. Background: ELISA stands for enzyme-linked immunosorbent assay.
For orientation: EC50 means the concentration at which the effect is half-maximal. On to B1, for which the 50% effective concentration (EC50) was 0.441 nM.

As for B2, the EC50 came out at 10.1 nM.

In the case of B3, the half-maximal effective concentration (EC50) came out at 1.21 nM.

Turning to B4, the EC50 was found to be 0.227 nM.

For B5, the concentration giving a half-maximal response (EC50) was 0.326 nM.

The target of the next test is T2, recombinant human CD47-Fc protein (R&D …). The experiment in a line: ELISA of Fab supernatant on coated CD47-Fc.
Regarding B6, the OD450 is over 0.5 OD450.

On to B7, for which the OD450 was over 0.5 OD450.

Regarding B8, the OD450 was over 0.5 OD450.

Take B9: the OD450 is over 0.5 OD450.

With B10, the OD450 is over 0.5 OD450.

Consider B11, for which the OD450 was over 0.5 OD450.

The target is the same in the next test. The experiment in a line: blocking ELISA: CD47-Fc (1 µg/ml) binding to coated His-tagged SIRP-α.
Broadly, the IC50 is the midpoint of a concentration-inhibition curve. As to B1, the IC50 stood at 0.063 nM.

For B4, the half-maximal inhibitory concentration (IC50) was 0.155 nM.

Turning to B5, the half-inhibitory concentration (IC50) was found to be 0.068 nM.
